Experimental data taken from the DeepSol protein solubility set.

Test: soluble on expression in E. coli; label from the status in PepcDB or PDB records

Sequence: MMNYELMTTQNAPVKMWTKGVPVEDDARQQLINTAKMPFIFKHIAVMPDVHLGKGSTIGSVIPTKGAIIPAAVGVDIGCGMNALRTSLTAADLPENLADLRSAIEAAVPHGRTTGRGHRDVGAWGNPPANVNEKWAQLEAGYQWLTQKYPRFLNTNNYKHLGTLGTGNHFIEICLDETDRVWIMLHSGSRGIGNAIGTYFIGLAQQEMQEQLETLPSRDLAYFNEGSEYFDDYLKAVHWAQQFASLNREAMMENALAALQRCVEKPSALDMDEINCHHNYVQKEQHFGEEIYVTRKGAVSARRGEFGIIPGSMGAKSFIVRGLGNEESFCSCSHGAGRVMSRTKAKKLFSVDDQIRATAHVECRKDADVIDEIPMAYKDIDAVMAAQSDLVEIMYALRQVVCVKGLEHHHHHH
- soluble on expression in E. coli: not soluble

Sequence: MGSDKIHHHHHHMDSELRKRFNPDGSLLRRQQLRMLELLEVIDVICRKHQIPYWLSSGTLIGAARHKGFIPWDDDLDIEMLRSDYLRLLKVLPQELPDNLALQTNETDPNYIFIYGKLRDKDSHLEETNSYDRIFHYTGIYIDIFPLEKIPYCLAWIGGHMQGQIYNQLNNKNIKESTLYKRIRRIYHFNTRIGFPILRFIAKLFPGKELRHSFGTAYFKPRYTDDIFPLTEMEFEGKMFPVPRQTDAVLRKIYGDYMQLPDLENIHPHYNKLEFYK
- soluble on expression in E. coli: not soluble

Sequence: MSQLPTDFASLIKRFQFVSVLDSNPQTKVMSLLGTIDNKDAIITAEKTHFLFDETVRRPSQDGRSTPVLYNCENEYSCINGIQELKEITSNDIYYWGLSVIKQDMESNPTAKLNLIWPATPIHIKKYEQQNFHLVRETPEMYKRIVQPYIEEMCNNGRLKWVNNILYEGAESERVVYKDFSEENKDDGFLILPDMKWDGMNLDSLYLVAIVYRTDIKTIRDLRYSDRQWLINLNNKIRSIVPGCYNYAVHPDELRILVHYQPSYYHFHIHIVNIKHPGLGNSIAAGKAILLEDIIEMLNYLGPEGYMNKTITYAIGENHDLWKRGLEEELTKQLERDGIPKIPKIVNGFK
- soluble on expression in E. coli: soluble

Sequence: MAHHHHHHMALSSSGSAALGDRIARAAAAAPQWTAQQRCFRQLLKSLRGAYFHDRSKLFWARHRILVEFYKYSRVEEERDVLLLVGIGNEIATFVAEYMKVDVGAIMEHNKKIQSLPVAKAKRYREEYLLHEKQHESWCKQKIRLMMDRRPPPPYPFS
- soluble on expression in E. coli: not soluble

Sequence: GSFTGQGDFHLLDHRGRARCKADFRGQWVLMYFGFTHCPDICPDELEKLVQVVRQLEAEPGLPPVQPVFITVDPERDDVEAMARYVQDFHPRLLGLTGSTKQVAQASHSYRVYYNAGPKDEDQDYIVDHSIAIYLLNPDGLFTDYYGRSRSAEQISDSVRRHMAAFRSVLS
- soluble on expression in E. coli: soluble

Sequence: SAPAAALKKAAEAAEPATVTEDATDLQNEVDQELLKDMYGKEHVNIVFIGHVDAGKSTLGGNILFLTGMVDKRTMEKIEREAKEAGKESWYLSWALDSTSEEREKGKTVEVGRAYFETEHRRFSLLDAPGHKGYVTNMINGASQADIGVLVISARRGEFEAGFERGGQTREHAVLARTQGINHLVVVINKMDEPSVQWSEERYKECVDKLSMFLRRVAGYNSKTDVKYMPVSAYTGQNVKDRVDSSVCPWYQGPSLLEYLDSMTHLERKVNAPFIMPIASKYKDLGTILEGKIEAGSIKKNSNVLVMPINQTLEVTAIYDEADEEISSSICGDQVRLRVRGDDSDVQTGYVLTSTKNPVHATTRFIAQIAILELPSILTTGYSCVMHIHTAVEEVSFAKLLHKLDKTNRKSKKPPMFATKGMKIIAELETQTPVCMERFEDYQYMGRFTLRDQGTTVAVGKVVKILD
- soluble on expression in E. coli: soluble

Sequence: MKAQEVPSTTFTGGETVLTFKGGVHPPELKEWSKDKPIERAPLPQKVFVFLSNHAGNPAKPVVSPGDEVKTGQVIGEPEGFISAYLHSPVTGRVLEIKKILHPILGKPIEAIVIERTSDDEWVHIETGDFERMSKEEILEIIKKAGIVGLGGAMFPTHVKLSPPPEKKVDTLIVNGAECEPVLTIDHRLMLERAEDILQGILIMMKVLGVQKAVVGVESNKMDAYHNLKKVFKGYPVDVALLRTKYPQGAEKQLIYAITGRMVPRGGLPMDVGVVVQNVGTCVAVKEAVVDGKPLVERGMTVSGDAVKNQKNLIVRIGTPVKDVIDYCGGIDENTERVILGGPMMGISITNLDIPVMKGTSGITAFLPKKSRPQKPCIRCSECVQVCPMNLQPYLLYLLSTKRKYDEAVENGLMDCIECGSCTYTCPSKIEHVRYIKLAKTVYRATRRGRRAAALEHHHHHH
- soluble on expression in E. coli: soluble

Sequence: VRDHLPPGLPPDPFADDPCDPSAALEAVEPGQPLDQQERMAVEADLADLAVYEALLAHKGIRGLVVCCDECQQDHYHDWDMLRSNLLQLLIDGTVRPHEPAYDPEPDSYVTWDYCRGYADASLNEAAPDADRFRRR
- soluble on expression in E. coli: soluble

Sequence: MGSDKIHHHHHHMQTIQLSNIFKQQAHQTILKDFTLTIPAQSNIGIQMSHVEATTLFNLLRQTTPQTSGVMTGLTPARIQAIFHDDGFYPQLTVSTYLKTFQHISTFETDLDDILQYFALKDVAHTKIKHLSFDQQQRLALLRAFILQPDLLLIESPLTNLTNAGIELYLAALAYTREHGVTVLLTSYSLEELVLTSTTIFRYRPNQGLELTDLATESSSDSAHTSEDTPRPIFKIASKVEDKTVFFSPNEIDFIESVNGVSQLNVSGEQFTSSQTMSELEQQLTTLGFFRCHRSYLVNLQQIAELISYSRNSYTLILKNKSKLPLSRGKLTDLKALINF
- soluble on expression in E. coli: not soluble

Sequence: MGLKDQAVTWRRYFHQFPELSDKEFKTTQKIKDILTEHHIRILDLPLATGLVAEVGQGLSCIAVRADIDALPIQELVEQDFKSENEGVMHACGHDIHMASILATAVKLKEIEGTLTGRVKFIFQSAEELGHGAFKIIETHALKDVQAVLGFHNDPSRSVGTFAIKTGAITSAVDRFEFHIKGVGGHAAKPEQCNDPVIVLAQLINSIQSIVSRNLSAFDEAVVTIGQISCGNTWNVIADHAYVQGTVRSFDPVVRKLVETRLQDIADGLAQAYNMKINLNYTHLPGAVMNDEALTHKAIAVAQHVGYKVEMMEQPLTIGEDFSGYSQHFPSVFALIGSHSEYDLHHPQYKPDERILEKVPEYFVEFVKRLLHE
- soluble on expression in E. coli: not soluble

Sequence: SMPKDVGILALEVYFPAQYVDQTDLEKYNNVEAGKYTVGLGQTRMGFCSVQEDINSLCLTVVQRLMERIQLPWDSVGRLEVGTETIIDKSKAVKTVLMELFQDSGNTDIEGIDTTNACYGGTASLFNAANWMESSSWDGRYAMVVCGDIAVYPSGNARPTGGAGAVAMLIGPKAPLALERGLRGTHMENVYDFYKPNLASEYPIVDGKLSIQCYLRALDRCYTSYRKKIQNQWKQAGSDRPFTLDDLQYMIFHTPFCKMVQKSLARLMFNDFLSASSDTQTSLYKGLEAFGGLKLEDTYTNKDLDKALLKASQDMFDKKTKASLYLSTHNGNMYTSSLYGCLASLLSHHSAQELAGSRIGAFSYGSGLAASFFSFRVSQDAAPGSPLDKLVSSTSDLPKRLASRKCVSPEEFTEIMNQREQFYHKVNFSPPGDTNSLFPGTWYLERVDEQHRRKYARRPV
- soluble on expression in E. coli: soluble

Sequence: MGGMTGMNNNAIKVVSVLAIGARERIALVEVGQQQILLGITPSTIRTLHVFDEPVVDAGNAGSSDFARKLQSMIGKSWSAPERKDLEHHHHHH
- soluble on expression in E. coli: not soluble

Sequence: MLLPEPTTLRHVLIDGTIPQVATDEALIKDFGHPYEYAFNRTPQGYQVRWNTPKGVYILDAVVAAHIDPDDQWYWHQQFAFAIPELAEGPHHSSEELLTAARTLNGNGPAYLVPTEDGHTDVIVATPSFPQLPLAHALTLGLGQARNNNLTDDEIRRAIIAFAAQNDYSVAEDGLILCVRSDNGEQAHVDIARLKVRDLQSTTPQLRLTDVLADATFVAAEHQLLLNGRFPDARATTNDDCSVVTLTTPTGQTLRARALLIATLRGETLQWSWADPAVCDLPGAKAALGVKNFAIDNGLGMLLGQVDAATALSQRLYDAAKPVSRFWTDVRVPLSDGSTAIMLVDASELRLPPPSHAAVFATLHETVPHGRDIRRALSYYGAFRRITIDDVDYRRVRVHAPSAPIQVSMDACGRVCSIV
- soluble on expression in E. coli: not soluble

Sequence: MHLNNLNNFNNLENNGEYHCSGPIIKKPFRHIALTVPSSDITNFNEIFYVEPQYIAQAIRLTNTFQGAIDPLTLNFNFEKALQIANGLPNAGVTGTINQSVIHQTIEVSVMISQIKEIIRSVLGLVINSANFWNSVVSAITNTFTNLEPQVDENWIVWRNLSATQTSYFYKILFSIQNEDTGRFMAILPIAFEITVDVQKQQLLFITIKDSARYEVKMKALTVVQALDSYNAPIIDVFNVRNYSLHRPNHNILQNLNVNPIKS
- soluble on expression in E. coli: soluble

Sequence: METEEEIQNVNVHHGHNIRRTRIEKNIKQDALAALVNMTQPNVSKYEKMRVIEDEMLNRFARALNVPVEYLKTLEEDAPSVVFENITNNVHDNKDSSMGSTGYNNDSITNTFNPIDKITELYERLLKEKDEKYAALEKRIQGLEQQNNNGK
- soluble on expression in E. coli: not soluble

Sequence: SDIEQKQAEIIDQLVKRASTCKSEALGPLIIEATSHPSLFAFSEILALPNVAQLEGTTDSVYLDLLRLFAHGTWGDYKCNATRLPHLSPDQILKLKQLTVLTLAESNKVLPYDTLMVELDVSNVRELEDFLINECMYAGIVRGKLDQLKRCFEVPFAAGRDLRPGQLGNMLHTLSNWLNTSENLLISIQDKIKWADNMSEMDKKHRKEAEEGVEEVKKSLSMKGDVDIRGNKEMFGEPSGVMDYEEDGIRPKRRRHPVTR
- soluble on expression in E. coli: soluble

Sequence: MGSDKIHHHHHHMSIYHDVIKSEVFPALGCTEPIAVAYAASLAAERLGAEVETVTASVDPGVFKNGFAVTVPKTGGLKGNVIAAALGALIARPELKMEILSGADERLLAQAELLVSSGRATVALVKERTDLYIDVVVTGGGRTARAVLEGGHTNIVRLECDGRILLNADEPVSAVDSHAYRAVLRQMTFSEMIGLLDDLDQGDLVYLKRGVEMNLRIAEEGKQLTKVGHYVEELVRKGFLLADVVSSSKILTASASDARMAGLPYPVMSSGGSGNQGIVAILVPYNVGMFFHVPEETILRSIALSHLVNAYIKCHTGDLAPICGCAIAAGVGAAVAIVYQQAGPDMHKIDLAVNTIISDIGGMLCDGAKGGCALKVVSSTDAAIRAAYMALNGHGISEEEGFVGKSAEETIHNLSRIADKGMALVDDTMLCIMLQKRSTEP
- soluble on expression in E. coli: not soluble

Sequence: MVSMLLVGRIGKSVGLNGGLRLHLESDFPECLKKGVKVSVAPLNAFSCVSSFKEYIIHSYEHAKNLLFLETIQTPEKAKELTNLGLFMSEAESKKLCVLKEGEFFYCDLVGLSVVEENEILGKVIEIQRISQTDYFLVETTLNLVEKGLAKIFLIPYRDFYIQEILLQDKKITTHNAKTLLENSLEHHHHHH
- soluble on expression in E. coli: soluble

Sequence: MVGVMSNSSALSREFVKIEIGGKVIKGNSKVENSGDYFDGHCPQAFHAFSGIDGTVFDLINLKLRVTKHIQDLLENFFKRGEKEVKIEILRRESTKSGSAYSSFKVVYQGCRMHNMLLAHDNDSNLILELSFTPEESVSIEMNIPSDDGKSTEKLGPMTYNLYKEALV
- soluble on expression in E. coli: not soluble

Sequence: MLEIDNQTPLESDFLLLEKIANVLAPTQIIELVLVSDETIREINKDLRGCDYATDVLSFPLEAIPHTPLGSVVINAPLAQTNALKLGHSLENEIALLFIHGVLHLLGYDHEKDKGEQRQKESELIKAFNLPLSLIERTQDLEHHHHHH
- soluble on expression in E. coli: not soluble

Sequence: DVLAVTSCPSGVAHTFLAAKSLEKAACALGIKIKVETQGANGVINRITEKDIEKAKFVIFAHDVAIKEPERFRKIKVLDVTTKDAMLNATALLQARRVS
- soluble on expression in E. coli: not soluble

Sequence: MRGSVPSVREIETLLSQLPWRQFQSPRVHLEQYTTPVHLAARIAHHVALCIDEDERRSVQAVDLGTGTGILALALCLAGLNHVLGVDVDSEALELARANAAALWELCPQSVGAVLEFAAVDVQPNSLALAPKSFDVAVLNPPFGTRQRSADIAFLDVACHLSRRFVYSLHKSSTRSYLSRRLERFGCTAQVYARLRFDLPATYVFHRERAVDIDVDLWQIEVKR
- soluble on expression in E. coli: not soluble
